Measured values as given in patent publication US20260125451A1 (JIANGSU HENGRUI PHARMACEUTICALS, published 2026).

What was measured:
[1] = target: T1, APRIL (Acro Biosystems, Cat: APL-H52D1) (UniProt O75888 115-250, limits assumed); assay: ELISA, APRIL coated, anti-human Fc-HRP
T1 construct: also called ARPIL; A proliferation-inducing ligand
T1 sequence (looked up): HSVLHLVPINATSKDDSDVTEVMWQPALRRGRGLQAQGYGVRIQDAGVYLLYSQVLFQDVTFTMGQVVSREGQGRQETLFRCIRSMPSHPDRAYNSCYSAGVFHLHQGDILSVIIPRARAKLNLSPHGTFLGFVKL

[2] = target: T2, type I interferon (IFN) receptor subunit 1 (IFNAR1) (human, UniProt P17181 28-557); assay: cell-based or functional assay
T2 sequence (looked up): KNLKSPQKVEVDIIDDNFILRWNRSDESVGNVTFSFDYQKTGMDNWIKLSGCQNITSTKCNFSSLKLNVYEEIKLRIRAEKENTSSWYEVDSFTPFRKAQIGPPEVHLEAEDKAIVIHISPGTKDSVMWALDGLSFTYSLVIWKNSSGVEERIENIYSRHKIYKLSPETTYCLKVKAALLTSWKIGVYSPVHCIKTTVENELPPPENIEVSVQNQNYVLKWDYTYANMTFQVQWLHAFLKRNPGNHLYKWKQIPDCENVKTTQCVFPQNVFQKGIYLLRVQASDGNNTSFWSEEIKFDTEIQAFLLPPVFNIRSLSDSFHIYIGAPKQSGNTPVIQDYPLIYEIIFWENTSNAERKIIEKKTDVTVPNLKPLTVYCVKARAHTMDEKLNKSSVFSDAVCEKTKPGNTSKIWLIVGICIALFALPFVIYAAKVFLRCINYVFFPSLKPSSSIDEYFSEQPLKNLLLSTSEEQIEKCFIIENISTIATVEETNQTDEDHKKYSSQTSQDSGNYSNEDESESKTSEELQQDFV

[3] = target: recombinant human BAFF (R&D cat: 7537-BF-025/CF) (human, UniProt Q9Y275 134-285, limits assumed); assay: cell-based or functional assay
[4] = target: T1, APRIL (Acro Biosystems, Cat: APL-H52D1); assay: ELISA, APRIL coated, anti-human Fc-HRP, OD450
Protocol: The capabilities of fusion proteins B606401, B637302, B746201, and B805201 to bind to BAFF and APRIL were assessed by ELISA as follows:
BAFF (PeproTech, Cat: 310-13) or ARPIL (Acro Biosystems, Cat: APL-H52D1) was diluted to 1 μg/mL with PBS, and a 96-well plate was coated with the dilution overnight at 4° C. The plate was washed with PBST and blocked with Blocking Buffer (PBST containing 1% BSA) at 37° C. for 1 h. The plate was tapped. The test antibodies were diluted with Blocking Buffer. Incubation was performed at 37° C. for 1.5 h. The plate was washed with PBST. An HRP-mouse anti-human Fc antibody (GenScript, Cat: A01854-200) was diluted with Blocking Buffer. Incubation was performed at 37° C. for 40 min. The plate was washed with PBST. 100 μL of TMB substrate solution (Biopanda, Cat: TMB-S-003) was added, and color development was performed at 37° C. for 3 min. 100 μL of ELISA stop solution (Solarbio, Cat: C1058) was added. OD450 was measured.
The EC₅₀ value for the capability of B637302 to bind to APRIL decreased to 1/7 to ⅙ of that of telitacicept.

[5] = target: T2, type I interferon (IFN) receptor …; assay: cell-based or functional assay; remark: listed apart in the source

EC50 relative to that of telitacicept [1]: 0.333 ratio | IC50 (nM), inhibition of the activity of type I interferons (IFN-β, HEK-Blue IFN-α/β cells) [2]: 1.63 nM | Flow cytometry proliferating B cell proportion (%), mean, BAFF-induced, drug at 10 nM [3]: 20.4% | Flow cytometry proliferating B cell proportion (%), mean, BAFF-induced, drug at 100 nM [3]: 24.3% | Flow cytometry proliferating B cell proportion (%), mean, BAFF-induced, drug at 1000 nM [3]: 15% | Emax [4]: 2.85 nM | IC50, inhibition of IFN-α-induced in vitro differentiation of B cells into plasma cells [5]: 6.21 nM
B1: B805201 (other)
heavy: EVQLVQSGAEVKKPGESLKISCKGSGYIFTNYWIAWVRQMPGKGLESMGIIYPGDSDIRYSPSFQGQVTISADKSITTAYLQWSSLKASDTAMYYCARHDIEGFDYWGRGTLVTVSSASTKGPSVFPLAPSSKSTSGGTAALGCLVKDYFPEPVTVSWNSGALTSGVHTFPAVLQSSGLYSLSSVVTVPSSSLGTQTYICNVNHKPSNTKVDKRVEPKSCDKTHTCPPCPAPEFEGGPSVFLFPPKPKDTLMISRTPEVTCVVVDVSHEDPEVKFNWYVDGVEVHNAKTKPREEQYNSTYRVVSVLTVLHQDWLNGKEYKCKVSNKALPASIEKTISKAKGQPREPQVYTLPPSRDELTKNQVSLTCLVKGFYPSDIAVEWESNGQPENNYKTTPPVLDSDGSFFLYSKLTVDKSRWQQGNVFSCSVMHEALHNHYTQKSLSLSPGKGGGGSGGGGSGGGGSSTSCREEQGEFYDHLLRDCISCASICGQHPKQCAAFCE
light: EIVLTQSPGTLSLSPGERATLSCRASQSVSSSFFAWYQQKPGQAPRLLIYGASSRATGIPDRLSGSGSGTDFTLTITRLEPEDFAVYYCQQYDSSAITFGQGTRLEIKRTVAAPSVFIFPPSDEQLKSGTASVVCLLNNFYPREAKVQWKVDNALQSGNSQESVTEQDSKDSTYSLSSTLTLSKADYEKHKVYACEVTHQGLSSPVTKSFNRGEC
notes: Anifrolumab with TACI-19-16 at the C-terminus of the heavy chain; also called B80521
